Where a chain is given by its changes, count along the chain named. Numbers in names are those of the source. Like-named read-outs stand apart in the source and are kept apart here.
How the values were obtained:
human claudin 6 (CLDN6) [1] = target: T1, human claudin 6 (CLDN6) (human, UniProt P56747 1-220); test: FACS, HEK293-hCLDN6 cells
T1 construct: also called human CLDN6; hCLDN6
T1 sequence: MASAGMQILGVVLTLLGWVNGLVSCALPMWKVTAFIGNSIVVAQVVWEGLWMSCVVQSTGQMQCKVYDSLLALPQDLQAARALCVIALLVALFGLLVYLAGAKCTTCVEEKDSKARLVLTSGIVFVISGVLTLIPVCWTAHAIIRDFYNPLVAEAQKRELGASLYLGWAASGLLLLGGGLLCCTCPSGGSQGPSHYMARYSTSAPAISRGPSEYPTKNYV

human claudin 6 (CLDN6) [2] = target: T1, human claudin 6 (CLDN6); test: FACS, HEK293T-hCLDN6 cells
cyno CLDN6 [3] = target: T2, cyno CLDN6 (cyno); test: FACS, HEK293T-cyno-CLDN6 cells
T2 construct: whole, on cells; also called cynomolgus CLDN6

cyno CLDN6 [4] = target: T2, cyno CLDN6; test: FACS, HEK293T_cyno-CLDN6 cells
human claudin 6 (CLDN6) [5] = target: T1, human claudin 6 (CLDN6); test: FACS, HEK293T/human CLDN6 cells
Procedure: (§1) For affinity determination, CLDN6 over-expressing HEK293T cells and cancer cell line PA-1 which express high levels of human CLDN6 were used to evaluate the binding activity of BG87P related engineering variants. Live cells were seeded in 96-well plate, and were incubated with a series of dilutions of chBG87P and engineered variants thereof. Goat anti-human IgG was used as second antibody to detect antibody binding to the cell surface. EC50 values for dose-dependent binding to CLDN6 expressing cell lines were determined by fitting the dose-response data to the four-parameter logistic model with GraphPad Prism. Cell binding activity of 1st round of BG87P humanization variants against HEK293T/human CLDN6 were compared to chBG87P and shown in FIG. 1A.
Beginning with the chBG87P antibody and BG87P-Bz0, several additional amino acid changes in the CDR regions of both VH and VL were made to further improve the biophysical properties for therapeutics use in human. The considerations included removing post translational modifications (PTM), improved heat stability (Tm), while maintaining binding activities, the resulted variants are BG87P-m1 (VH SEQ ID NO: 31 and VL SEQ ID NO: 8), BG87P-m2 (VH SEQ ID NO: 32 and VL SEQ ID NO: 8), BG87P-m3 (VH SEQ ID NO: 33 and VL SEQ ID NO: 8), and BG87P-m4 (VH SEQ ID NO: 34 and VL SEQ ID NO: 8) and BG87P-m5 (VH SEQ ID NO: 35 and VL SEQ ID NO: 14), BG87P-m6 (VH SEQ ID NO: 36 and VL SEQ ID NO 14), BG87P-m7 (VH SEQ ID NO: 37 and VL SEQ ID NO: 14), and BG87P-m8 (VH SEQ ID NO: 38 and VL SEQ ID NO: 14). Cell binding activity of chBG87P and BG87P-Bz0 related PTM removal variants against HEK293T/human CLDN6 was compared with chBG87P and BG87-Bz0, respectively ([…]). Cell binding affinity (EC50) and Emax (MFI) was normalized to chBG87P for directly comparison and ranking (Table 7).

human claudin 6 (CLDN6) [6] = target: T1, human claudin 6 (CLDN6); test: FACS, PA-1 cells (endogenous CLDN6)
Procedure: as §1

cyno CLDN6 [7] = target: T2, cyno CLDN6; test: flow cytometry on CHOK1/cyno CLDN6 cells, MFI(PE)
human claudin 9 (CLDN9) = target: T3, human claudin 9 (CLDN9) (human, UniProt O95484 1-217); test: flow cytometry on HEK293T/human CLDN9 cells, MFI(PE)
T3 construct: also called human CLDN9
T3 sequence: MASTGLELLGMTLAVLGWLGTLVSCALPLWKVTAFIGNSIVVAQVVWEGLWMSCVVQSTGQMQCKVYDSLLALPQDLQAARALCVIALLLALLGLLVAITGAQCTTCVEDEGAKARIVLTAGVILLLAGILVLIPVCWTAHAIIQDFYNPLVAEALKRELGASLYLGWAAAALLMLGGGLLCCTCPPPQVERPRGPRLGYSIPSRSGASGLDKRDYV

human claudin 6 (CLDN6) [8] = target: T1, human claudin 6 (CLDN6); test: flow cytometry on HEK293T/human CLDN6 cells, goat anti-human IgG secondary, MFI(PE)
Procedure: as §1

mouse CLDN6 = target: T4, mouse CLDN6 (mouse, UniProt Q9Z262 1-219); test: flow cytometry on CHOK1/mouse CLDN6 cells, MFI(PE)
T4 construct: whole, on cells
T4 sequence (looked up): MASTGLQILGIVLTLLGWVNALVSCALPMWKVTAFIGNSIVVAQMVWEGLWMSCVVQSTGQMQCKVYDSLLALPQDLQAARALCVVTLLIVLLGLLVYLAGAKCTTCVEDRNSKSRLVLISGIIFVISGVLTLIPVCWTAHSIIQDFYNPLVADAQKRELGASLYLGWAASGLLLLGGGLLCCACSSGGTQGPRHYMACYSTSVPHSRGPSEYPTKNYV

CD3ε (SPR analyte) [9] = target: T5, CD3ε (SPR analyte) (UniProt P07766 23-126, limits assumed); test: SPR, scFv-Fc
T5 sequence (P07766 23-126 limits assumed): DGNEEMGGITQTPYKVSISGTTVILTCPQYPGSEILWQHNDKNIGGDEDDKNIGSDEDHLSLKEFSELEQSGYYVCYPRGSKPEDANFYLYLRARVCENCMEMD

[10] = target: T6, human native CD3 on live cells (HuT78, Jurkat) (human, UniProt P07766 23-207; P09693 23-182; P04234 22-171); test: FACS, HuT78 cells, Test 1
T6 construct: whole, on cells; also called human CD3
T6 sequence (P07766 23-207, chain 1 of 3): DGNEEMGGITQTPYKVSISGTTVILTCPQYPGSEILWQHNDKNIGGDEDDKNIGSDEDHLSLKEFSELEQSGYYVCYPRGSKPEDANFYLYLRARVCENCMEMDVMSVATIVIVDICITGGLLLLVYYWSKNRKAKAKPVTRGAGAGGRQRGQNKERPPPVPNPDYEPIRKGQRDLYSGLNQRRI
T6 sequence (P09693 23-182, chain 2 of 3): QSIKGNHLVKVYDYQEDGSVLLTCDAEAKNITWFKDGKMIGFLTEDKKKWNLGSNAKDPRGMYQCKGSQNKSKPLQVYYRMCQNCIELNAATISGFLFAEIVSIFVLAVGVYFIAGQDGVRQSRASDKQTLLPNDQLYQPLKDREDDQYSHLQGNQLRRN
T6 sequence (P04234 22-171, chain 3 of 3): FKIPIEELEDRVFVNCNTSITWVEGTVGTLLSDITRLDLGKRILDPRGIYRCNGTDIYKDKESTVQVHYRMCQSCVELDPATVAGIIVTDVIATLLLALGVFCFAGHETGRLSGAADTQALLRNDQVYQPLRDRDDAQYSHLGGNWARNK
Procedure: (§2) For affinity determination, antibodies were captured by anti-human Fc surface, and used in the affinity-assay based on surface plasmon resonance (SPR) technology. The binding activity of humanized sp34 to bind native CD3 on live cells was evaluated using HuT78 cells in a FACS based assay. Live HuT78 cells were seeded in 96-well plate, and were incubated with a series of dilutions of chimeric or humanized sp34. Mouse anti-Human IgG was used as second antibody to detect antibody binding to the cell surface. EC50 values for dose-dependent binding to human native CD3 were determined by fitting the dose-response data to the four-parameter logistic model with GraphPad Prism.

[11] = target: T6, human native CD3 on live cells (HuT78, …); test: FACS, HuT78 cells, Test 2
Procedure: as §2

[12] = target: T6, human native CD3 on live cells (HuT78, …); test: flow cytometry on live HuT78 cells, mouse anti-human IgG secondary, MFI
Procedure: as §2

[13] = target: T6, human native CD3 on live cells (HuT78, …); test: as above; remark: listed apart in the source
Procedure: as §2

[14] = target: T6, human native CD3 on live cells (HuT78, …); test: FACS, HuT78 cells, Test 3
Procedure: as §2

[15] = target: T6, human native CD3 on live cells (HuT78, …); test: flow cytometry on live HuT78 cells, mouse anti-human IgG secondary, MFI; remark: listed apart in the source
Procedure: as §2

CD3ε (SPR analyte) [16] = target: T5, CD3ε (SPR analyte); test: SPR
[17] = target: T6, human native CD3 on live cells (HuT78, …); test: FACS, HuT78 cells
Procedure: as §2

B1: chimeric BG87P antibody (chBG87P) (antibody, V domains shown)
VH: QIQLQQSGPELVKPGASVKISCKASGYSFTDYHINWVKQRPGQGLEWIGWIYPGSGYTKYNEKFKVKATLTVDTSSSTAYMHLTSLTSEDSAVYFCARSGIYHYVSSYYFDHWGQGTTLTVSS
VL: DIVMTQSHTFMSTSVGDRVSITCKASQDVGTAVAWYQQKPGQSPKLLIYWASTRHTGVPDRFTGSGSGTDFTLTISNVQSEDLADYFCQQYSSYTFGGGTKLEIK
Human claudin 6 (CLDN6) [1]
  FACS-Ec50 ratio to BG87P: 1 ratio
Human claudin 6 (CLDN6) [2]
  FACS Emax ratio to BG87P: 1 ratio
Cyno CLDN6 [3]
  FACS Emax ratio to BG87P: 1 ratio
Cyno CLDN6 [4]
  EC50: 7.2 nM
Human claudin 6 (CLDN6) [5]
  EC50: 2.72 nM
  Emax ratio to BG87P: 1 ratio
  Top MFI Mean: 192000 MFI
Human claudin 6 (CLDN6) [6]
  EC50: 8.33 nM
  Emax ratio to BG87P: 1 ratio
  Top MFI Mean: 125000 MFI
Cyno CLDN6 [7]
  EC50 (read off the curve): ~7 nM
Human claudin 9 (CLDN9)
  binding result: no binding (tested: about 250 nM (log 2.4))
Human claudin 6 (CLDN6) [8]
  EC50 (read off the curve): ~10 nM

B2: BG87P-34 (antibody, V domains shown)
VH: EVQLQESGGGLVQPGGSLRLSCAASGYSFSDYHINWVRQAPGKGLEWVGYIYPGSGHTKYNEKFKGRFTISRDTSSNTAYLQMNSLRAEDTAVYYCARSGIYHYVSSYYFDHWGQGTLVTVSS
VL: DIQMTQSPSSLSASVGDRVTITCKASQDAGSAVAWYQQKPGKAPKLLIYWASTRHTGVPSRFSGSGSGTDFTLTISSLQPEDFATYYCQQYSSYTFGGGTKLEIK
notes: Framework-swapped final lead (IGHV3-23 / IGKV1-39); also called BG87-34
Human claudin 6 (CLDN6) [1]
  FACS-Ec50 ratio to BG87P: 1.17 ratio
Human claudin 6 (CLDN6) [2]
  FACS Emax ratio to BG87P: 1.03 ratio
Cyno CLDN6 [3]
  FACS Emax ratio to BG87P: 1 ratio
Cyno CLDN6 [4]
  EC50: 8.8 nM
Cyno CLDN6 [7]
  EC50 (read off the curve): ~9 nM
Mouse CLDN6
  binding result: binds
Human claudin 9 (CLDN9)
  binding result: no binding (tested: about 250 nM (log 2.4))
Human claudin 6 (CLDN6) [8]
  EC50 (read off the curve): ~10 nM

B3: humanized scFv BG562P (scFv-Fc) (Fc fusion)
scFv: EVQLVESGGGLVQPGGSLRLSCAASGFTFNTYAMNWVRQAPGKGLEWVARIRSKYNNYATYYADSVKDRFTISRDDAKNSLYLQMNSLRAEDTAVYYCVRHGNFGNSYVSWFAYWGQGTLVTVSSGGGGSGGGGSGGGGSEIVVTQSPATLSVSPGERATLSCRSSTGAVTTSNYANWVQQKPGQAPRGLIGGTNKRAPGIPARFSGSLSGDEATLTISSLQSEDFAVYYCALWYSNLWVFGGGTKVEIK
notes: BG561P with L4V in VL; not shown: human IgG1 Fc region, scFv fused to its N-terminus
CD3ε (SPR analyte) [9]
  Kd: 3.16 nM
  koff: 0.000367 s⁻¹
  kon: 116000 M⁻¹ s⁻¹
[10]
  EC50: 2.85 nM
[11]
  EC50: 2.85 nM
[12]
  EC50 (read off the curve): ~0.3 µg/mL
[13]
  EC50 (read off the curve): ~0.1 µg/mL

B4: humanized scFv BG563P (scFv-Fc) (Fc fusion)
scFv: B3 scFv with A49G, D68G
notes: BG561P with L4V in VL and A49G, D65G in VH; not shown: human IgG1 Fc region, scFv fused to its N-terminus
CD3ε (SPR analyte) [9]
  Kd: 1.57 nM
  koff: 0.000772 s⁻¹
  kon: 493000 M⁻¹ s⁻¹
[11]
  EC50: 0.94 nM
[14]
  EC50: 0.94 nM
[12]
  EC50 (read off the curve): ~0.1 µg/mL
[15]
  EC50 (read off the curve): ~0.1 µg/mL

B5: humanized scFv BG564P (scFv-Fc) (Fc fusion)
scFv: B3 scFv with N30S, A49G, D68G, N106S
notes: BG563P with N30S and N100S in VH; not shown: human IgG1 Fc region, scFv fused to its N-terminus
CD3ε (SPR analyte) [9]
  Kd: 1.39 nM
  koff: 0.000576 s⁻¹
  kon: 414000 M⁻¹ s⁻¹
[14]
  EC50: 1.23 nM
[15]
  EC50 (read off the curve): ~0.1 µg/mL

B6: humanized sp34 scFv BG561P (scFv-Fc) (Fc fusion)
scFv: B3 scFv with V144L
notes: scFv (VH-3xG4S-VK) fused to N-terminus of a human IgG1 Fc region; also called scFv-ized BG56P; not shown: human IgG1 Fc region, scFv fused to its N-terminus
CD3ε (SPR analyte) [16]
  Kd: 9.08 nM
  koff: 0.000401 s⁻¹
  kon: 44200 M⁻¹ s⁻¹
CD3ε (SPR analyte) [9]
  Kd: 4.98 nM
  koff: 0.00036 s⁻¹
  kon: 72200 M⁻¹ s⁻¹
[17]
  EC50: 4.35 nM
[10]
  EC50: 2.46 nM
[12]
  EC50 (read off the curve): ~0.5 µg/mL
[13]
  EC50 (read off the curve): ~0.3 µg/mL

From patent publication US20240301062A1 (BEIGENE SWITZERLAND, published 2024)
